Tests used:
mouse VEGFR-2 Fc = target: T1, mouse VEGFR-2 Fc (mouse, UniProt P35918 20-762, limits assumed); assay: ELISA: antibody dilutions on plate coated with 1 µg/ml mouse VEGFR-2 Fc, HRP secondary, O.D. 450
T1 construct: not shown: Fc part; not described
Description: To determine the specificity of an anti-VEGFR-1 monoclonal antibody to human VEGFR-I, purified antibodies 18F1 were tested in an ELISA-based assay. One μg/ml of recombinant human VEGFR-I Fc, mouse VEGFR-I Fc, mouse VEGFR-2 Fc, or human VEGFR-2 alkaline phosphatase was coated with PBS in a 96-well microtiter plates at 4° C. over night. After wash, the receptor coated plates were blocked with PBS containing 5% Dry Milk and 0.05% Tween 20. Serial dilutions of primary antibody 18F1 to human VEGFR-I, MF1 to mouse VEGFR-I, IC1 1 to human VEGFR-2, or DClOl to mouse VEGFR-2 were incubated in the receptor-coated plates for 30 minutes. After wash secondary anti-primary HRP conjugate antibodies was incubated in the plates for 30 minutes. Plates were washed and incubated with the substrate TMB (3,3′,5,5′-tetra-methylbenzidine) for color development. The absorbance at 450 nm was read as OD values for quantification of binding activity of antibodies. Data were analyzed using a GraphPad Prism Software.

[1] = target: T2, native VEGFR-1 expressed on the cell surface (human, UniProt P17948 27-1338); assay: cell-based competition: cold VEGF at 200-fold molar excess over 125I-VEGF (2 ng/ml) on PAE-VEGFR-1 cells, gamma counting
T2 construct: whole, on cells; The assay field of each row names the cell line; also called PAE-VEGFR-I cells; VEGFR-I expressing porcine aorta endothelial cells
Description: The binding of ¹²⁵1-VEGF to VEGFR-I on cell surface was performed using PAE-VEGFR-I expressing cells. […] Confluent cells were incubated in serum- and growth supplement-free Dulbecco's Modified Eagle Medium (DMEM)ZF-12 medium (Invitrogen, Carlsbad, Calif.) for 24 hours. Cells were rinsed once with ice-cold DMEMZF-12 medium containing 0.025 M HEPES and 1 mgZml bovine serum albumin (BSA). A serial dilution of anti-VEGFR-I antibody 18F1 or cold VEGF at the concentration of a 200-fold molar excess of labeled VEGF was added to each well in the plate and incubated at 4° C. for 1 hour. After wash, ¹²⁵I-VEGF was added at the concentration of 2 ngZml and was incubated at 4° C. for 2 hours on a platform shaker. The cells were washed three times with PBS containing 1 mgZml BSA and 0.25 mM CaCl₂, and were incubated for 5 minutes in the presence of 1% Triton X-100, 1 mgZml BSA, and 0.16% NaN₃ to remove bound VEGF. The soluble content of each well was counted in a gamma counter. The assays were performed in triplicate in at least three independent experiments and the data were analyzed using Prism GraphPad software 3.03.

[2] = target: T3, soluble recombinant human VEGFR-1 alkaline phosphatase (human, UniProt P17948 27-758); assay: ELISA, purified antibody on rhuVEGFR-1 AP coated plate (given as ED50)
T3 construct: Made in house in stably transfected cells; also called rhuVEGFR-I AP; VEGFR-I AP; not shown: alkaline phosphatase fusion partner
Description: (§1) Specifically, hybridoma supernatants or purified antibodies were diluted in PBS with 5% FBS and 0.05% Tween 20 (ELISA buffer) and incubated in rhuVEGFR-I AP or AP coated 96-well microtiter plates for 30 minutes. Plates were washed with the ELISA buffer and incubated with goat anti-mouse IgG-horseradish peroxidase (HRP) conjugate (BioSource International, Camarillo, Calif.) for 30 minutes. TMB (3,3′,5,5′-tetra-methylbenzidine) substrate (Kierkegaard and Perry Lab, Inc., Gaithersburg, Md.) was used for color development following the manufacturer's instruction. The absorbance at 450 nanometers (nm) was read for quantification of binding activity of antibodies. For identification of the hybridomas producing anti-VEGFR-I antibodies, hybridoma supernatants were preincubated with VEGFR-I AP for 1 hour. The mixtures were incubated with the ELISA buffer in VEGF or P1GF coated 96-well microtiter plates for 1 hour. PNPP (p-nitrophenyl phosphate) substrate for AP was used for color development following the manufacturer's instruction. The absorbance at 405 nm was read for quantification of VEGFR-I binding to VEGF or P1GF. Optical density (OD) values were read on a microtiter plate reader (Molecular Devices Corp., Sunnyvale, Calif.). ED50 and IC50 of the antibodies were analyzed using GraphPad Prism 3 software (GraphPad Software, Inc., San Diego, Calif.).

[3] = target: T4, recombinant extracellular domain of VEGFR-1 (UniProt P17948 27-758, limits assumed); assay: SPR, BIAcore 2000, VEGFR-1 extracellular domain immobilised at low density
T4 construct: extracellular domain
Description: Affinities of anti-VEGFR-1 antibody clones 6F9, 13 G12, 15F1 1, 18F1 were determined by plasmon resonance technology using BIAcore 2000 (Pharmacia, Piscataway, N.J.) according to the procedures provided by the manufacturer. Kinetic analyses of the antibodies were performed by immobilization of recombinant extracellular domain of VEGFR-I onto a sensor surface at a low density. The (kₒₙ) and dissociation (kₒ_{^ff}) rates were determined using the BIAevaluation 2.1 software provided by the manufacturer.

[4] = target: T2, native VEGFR-1 expressed on the cell …; assay: cell-based or functional assay
[5] = target: T3, soluble recombinant human VEGFR-1 …; assay: blocking ELISA: antibody preincubated with VEGFR-1 AP, binding to PlGF coated plate
Description: as §1

[6] = target: T3, soluble recombinant human VEGFR-1 …; assay: blocking ELISA: antibody preincubated with VEGFR-1 AP, binding to VEGF coated plate
Description: as §1

[7] = target: T3, soluble recombinant human VEGFR-1 …; assay: ELISA: purified antibody on plate-coated rhuVEGFR-1 AP, O.D. 450
Description: as §1

T2 sequence (P17948 27-1338): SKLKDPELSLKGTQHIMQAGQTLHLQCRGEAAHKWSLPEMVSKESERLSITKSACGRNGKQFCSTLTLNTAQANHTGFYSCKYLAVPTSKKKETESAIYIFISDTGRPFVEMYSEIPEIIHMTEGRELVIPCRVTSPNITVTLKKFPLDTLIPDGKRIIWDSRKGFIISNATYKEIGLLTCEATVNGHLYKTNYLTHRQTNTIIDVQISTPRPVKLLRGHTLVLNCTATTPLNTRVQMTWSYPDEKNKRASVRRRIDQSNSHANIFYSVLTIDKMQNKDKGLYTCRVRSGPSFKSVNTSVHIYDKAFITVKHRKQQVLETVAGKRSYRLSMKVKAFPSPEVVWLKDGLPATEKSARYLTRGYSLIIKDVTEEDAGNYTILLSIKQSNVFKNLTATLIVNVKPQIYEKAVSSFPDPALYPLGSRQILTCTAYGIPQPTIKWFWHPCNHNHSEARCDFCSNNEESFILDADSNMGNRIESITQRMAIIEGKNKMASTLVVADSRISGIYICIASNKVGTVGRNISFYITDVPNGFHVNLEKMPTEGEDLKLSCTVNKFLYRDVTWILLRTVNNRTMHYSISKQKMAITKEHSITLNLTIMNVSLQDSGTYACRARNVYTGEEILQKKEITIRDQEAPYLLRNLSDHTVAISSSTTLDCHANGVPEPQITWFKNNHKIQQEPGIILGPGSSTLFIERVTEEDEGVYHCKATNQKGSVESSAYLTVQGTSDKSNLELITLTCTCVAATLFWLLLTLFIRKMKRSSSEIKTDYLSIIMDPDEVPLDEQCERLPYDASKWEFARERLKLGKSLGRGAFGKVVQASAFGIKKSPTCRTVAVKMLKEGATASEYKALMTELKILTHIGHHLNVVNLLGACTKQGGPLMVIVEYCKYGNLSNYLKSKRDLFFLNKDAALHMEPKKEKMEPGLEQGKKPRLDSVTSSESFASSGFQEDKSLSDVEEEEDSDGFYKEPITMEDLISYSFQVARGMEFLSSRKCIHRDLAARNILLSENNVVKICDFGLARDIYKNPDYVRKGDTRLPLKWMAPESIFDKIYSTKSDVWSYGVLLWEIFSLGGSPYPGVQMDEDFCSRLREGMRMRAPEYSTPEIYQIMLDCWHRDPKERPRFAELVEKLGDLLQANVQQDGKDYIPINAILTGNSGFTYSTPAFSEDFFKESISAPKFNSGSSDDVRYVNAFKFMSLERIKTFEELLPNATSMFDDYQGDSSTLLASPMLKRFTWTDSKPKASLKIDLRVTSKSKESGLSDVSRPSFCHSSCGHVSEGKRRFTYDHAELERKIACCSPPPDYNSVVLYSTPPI
T3 sequence (P17948 27-758): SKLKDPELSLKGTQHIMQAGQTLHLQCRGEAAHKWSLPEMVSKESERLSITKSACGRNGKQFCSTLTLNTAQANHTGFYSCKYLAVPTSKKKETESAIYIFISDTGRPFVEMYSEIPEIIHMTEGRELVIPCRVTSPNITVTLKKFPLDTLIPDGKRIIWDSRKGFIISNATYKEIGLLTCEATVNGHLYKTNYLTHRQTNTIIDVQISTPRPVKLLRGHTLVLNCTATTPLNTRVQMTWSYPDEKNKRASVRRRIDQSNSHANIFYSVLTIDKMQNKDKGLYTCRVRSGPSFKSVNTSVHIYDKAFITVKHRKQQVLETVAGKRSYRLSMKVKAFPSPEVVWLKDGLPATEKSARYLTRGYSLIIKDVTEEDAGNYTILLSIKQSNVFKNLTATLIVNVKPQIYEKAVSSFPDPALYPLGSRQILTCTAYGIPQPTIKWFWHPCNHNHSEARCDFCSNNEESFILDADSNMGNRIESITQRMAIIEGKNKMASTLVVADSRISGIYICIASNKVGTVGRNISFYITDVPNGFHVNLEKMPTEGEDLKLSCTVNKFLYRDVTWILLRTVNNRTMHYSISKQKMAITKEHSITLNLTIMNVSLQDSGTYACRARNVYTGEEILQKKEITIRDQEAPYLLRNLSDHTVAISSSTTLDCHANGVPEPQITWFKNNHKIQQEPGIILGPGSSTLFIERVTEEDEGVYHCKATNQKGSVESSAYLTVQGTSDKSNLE
T4 sequence (P17948 27-758 limits assumed): as the sequence (P17948 27-758) above
T1 sequence (P35918 20-762 limits assumed): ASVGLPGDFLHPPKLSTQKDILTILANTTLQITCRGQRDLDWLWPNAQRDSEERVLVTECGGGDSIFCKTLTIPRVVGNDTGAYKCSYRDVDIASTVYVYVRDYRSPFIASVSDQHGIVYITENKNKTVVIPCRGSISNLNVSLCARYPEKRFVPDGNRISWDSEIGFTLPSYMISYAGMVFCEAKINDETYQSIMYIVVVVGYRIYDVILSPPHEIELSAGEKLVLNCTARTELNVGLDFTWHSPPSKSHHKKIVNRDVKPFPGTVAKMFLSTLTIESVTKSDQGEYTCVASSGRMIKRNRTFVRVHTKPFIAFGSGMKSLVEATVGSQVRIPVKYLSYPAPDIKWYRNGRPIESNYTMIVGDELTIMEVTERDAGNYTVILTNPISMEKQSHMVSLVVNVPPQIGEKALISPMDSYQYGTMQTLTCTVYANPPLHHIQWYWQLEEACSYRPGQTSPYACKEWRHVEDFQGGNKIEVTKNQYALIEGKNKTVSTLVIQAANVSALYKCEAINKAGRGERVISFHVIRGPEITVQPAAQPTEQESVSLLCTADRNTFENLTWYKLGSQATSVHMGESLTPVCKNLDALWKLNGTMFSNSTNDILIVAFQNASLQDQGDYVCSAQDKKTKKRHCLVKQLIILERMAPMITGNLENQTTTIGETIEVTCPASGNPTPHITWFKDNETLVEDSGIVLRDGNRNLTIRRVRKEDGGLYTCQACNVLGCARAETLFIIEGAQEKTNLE

| Binder | EC50 (read off the curve) (mouse VEGFR-2 Fc) | binding result [1] | EC50 [2] | Kd [3] | kon [3] | Inhibition of PlGF-induced DU4475 cell growth in vitro (IC50) [4] | IC50 [5] | IC50 [6] | EC50 [7] |
| --- | --- | --- | --- | --- | --- | --- | --- | --- | --- |
| DC101 (antibody, V domains shown) VH: EVQLVETGGGLVQPGNSLKLSCATSGFIFSTTWMNWIRQTPGKRLEWLAQIEDKSNNYFISYSESVKGRFTISRDDSKSSVYLQMNNLKEEDTAIYYCSWKYRSNYYFDYWGQGVMVTVSS VL: DIVLTQSPALAVSLEQRATISCKTSQNVDYYGISYLHWYQQKPGQQPKLLIYEGSNLASGIPARFSGSGSGTDFTLTIDPVEADDIVTYYCQQSKDYPYTFGAGTKLELK | ~8 ng/mL | – | – | – | – | – | – | – | – |
| human VEGF165 (ligand, UniProt P15692-4 27-191, looked up) APMAEGGGQNHHEVVKFMDVYQRSYCHPIETLVDIFQEYPDEIEYIFKPSCVPLMRCGGCCNDEGLECVPTEESNITMQIMRIKPHQGQHIGEMSFLQHNKCECRPKKDRARQENPCGPCSERRKHLFVQDPQTCKCSCKNTDSRCKARQLELNERTCRCDKPRR | – | binds | – | – | – | – | – | – | – |
| anti-VEGFR-1 antibody clone 13G12 (antibody, human IgG1, V domains shown, Fully human antibody (gamma heavy chain, kappa light chain) from hybridomas of KM transgenic mice, purified; The light chain entry runs a few residues into the kappa constant region) VH: QVQLVESGGGVVQPGRSLRLSCAASGFTFSSYGMHWVRQAPGKGLEWVAVIWYDGSNKYYADSVKGRFTISRDNSKNTLYLQMNSLRAEDTAVYYCARDHYGSGAHYYYYYGMDVWGQGTTVTVSS VL: not shown | – | – | 0.3 nM | 0.121 nM | 950000 M⁻¹ s⁻¹ | 66 nM | 0.82 nM | 0.7 nM | – |
| anti-VEGFR-1 antibody clone 6F9 (antibody, human IgG1, V domains shown, Fully human antibody (gamma heavy chain, kappa light chain) from hybridomas of KM transgenic mice, purified) VH: QVQLVESGGGVVQPGRSLRLSCAASGFTFSSYGMHWVRQAPGKGLEWVAVIWYDGSNKYYADSVKGRFTISRDNSKNTVYLQMNSLRAEDTAVYHCTRDHFGSGAHYYYYYGMDVWGQGTTVTVSS VL: not shown | – | – | 0.1 nM | 0.069 nM | 1.01e+06 M⁻¹ s⁻¹ | 43 nM | 0.86 nM | 0.82 nM | 0.114 nM |
| anti-VEGFR-1 antibody clone 15F11 (antibody, V domains shown, Fully human antibody (gamma heavy chain, kappa light chain) from hybridomas of KM transgenic mice, purified; The light chain entry runs a few residues into the kappa constant region; also called FI1) VH: QVQLVESGGGVVQPGRSLRLSCAASGFTFSSYGMHWVRQAPGKGLEWVAVIWFDGSNKYYADSVKGRFTISRDNSKNTLYLQMNSLRAEDTAVYYCARDHYGSGAHSYYYYGLDVWGQGTSVTVSS VL: not shown | – | – | 0.3 nM | 0.07 nM | 1.02e+06 M⁻¹ s⁻¹ | 44 nM | 0.49 nM | 0.73 nM | – |

Reference: patent publication US20100028347A1 (Eli Lilly, published 2010)
